Data published in article PMC4344327, “Region-Specific Activation of oskar mRNA Translation by Inhibition of Bruno-Mediated Repression” (PLoS Genetics, 2015).

T1: GST::Bru (full-length Bruno fused to GST) (Drosophila, UniProt O02374 1-604)
T1 construct: Bruno (Bru; encoded by the aret gene), Drosophila; full-length bru cDNA subcloned into pGEX-2TK; Vector pGEX-2TK; source: E. coli CodonPlus, extract, immobilized on Glutathione Sepharose 4B
T1 sequence (looked up): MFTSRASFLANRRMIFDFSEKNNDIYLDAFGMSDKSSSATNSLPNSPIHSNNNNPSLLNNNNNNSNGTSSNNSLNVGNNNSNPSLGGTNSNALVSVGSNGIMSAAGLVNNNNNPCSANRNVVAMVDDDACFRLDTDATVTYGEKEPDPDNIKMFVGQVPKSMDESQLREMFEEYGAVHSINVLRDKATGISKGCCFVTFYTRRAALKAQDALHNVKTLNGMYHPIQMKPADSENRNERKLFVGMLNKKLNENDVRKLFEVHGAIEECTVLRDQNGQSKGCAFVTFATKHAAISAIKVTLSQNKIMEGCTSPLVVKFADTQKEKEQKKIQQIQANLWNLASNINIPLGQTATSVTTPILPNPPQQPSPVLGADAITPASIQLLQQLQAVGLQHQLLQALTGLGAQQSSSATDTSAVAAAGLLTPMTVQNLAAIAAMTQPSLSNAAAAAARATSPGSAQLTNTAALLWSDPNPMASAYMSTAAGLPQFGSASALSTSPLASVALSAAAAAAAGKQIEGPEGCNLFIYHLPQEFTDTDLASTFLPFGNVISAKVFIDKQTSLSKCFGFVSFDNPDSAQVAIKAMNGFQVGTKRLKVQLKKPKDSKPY

B1: His6::Bru 1–146 (isolated amino-terminal domain) (domain or fragment, Drosophila, UniProt O02374 1-146, looked up)
chain: MFTSRASFLANRRMIFDFSEKNNDIYLDAFGMSDKSSSATNSLPNSPIHSNNNNPSLLNNNNNNSNGTSSNNSLNVGNNNSNPSLGGTNSNALVSVGSNGIMSAAGLVNNNNNPCSANRNVVAMVDDDACFRLDTDATVTYGEKEP
notes: also called Bru amino-terminal domain; source: E. coli, purified (Ni-NTA); not shown: His6, N-terminal, kept
B2: His6::Bru Δ334–416 (natural protein, Drosophila, UniProt O02374 1-604, looked up)
chain: MFTSRASFLANRRMIFDFSEKNNDIYLDAFGMSDKSSSATNSLPNSPIHSNNNNPSLLNNNNNNSNGTSSNNSLNVGNNNSNPSLGGTNSNALVSVGSNGIMSAAGLVNNNNNPCSANRNVVAMVDDDACFRLDTDATVTYGEKEPDPDNIKMFVGQVPKSMDESQLREMFEEYGAVHSINVLRDKATGISKGCCFVTFYTRRAALKAQDALHNVKTLNGMYHPIQMKPADSENRNERKLFVGMLNKKLNENDVRKLFEVHGAIEECTVLRDQNGQSKGCAFVTFATKHAAISAIKVTLSQNKIMEGCTSPLVVKFADTQKEKEQKKIQQIQAAAGLLTPMTVQNLAAIAAMTQPSLSNAAAAAARATSPGSAQLTNTAALLWSDPNPMASAYMSTAAGLPQFGSASALSTSPLASVALSAAAAAAAGKQIEGPEGCNLFIYHLPQEFTDTDLASTFLPFGNVISAKVFIDKQTSLSKCFGFVSFDNPDSAQVAIKAMNGFQVGTKRLKVQLKKPKDSKPY
notes: also called Bru lacking most of the linker domain between RRMs 2 and 3; source: E. coli, purified (Ni-NTA); not shown: His6, N-terminal, kept
B3: His6::Bru (full-length Bruno, Bru+) (natural protein, Drosophila, UniProt O02374 1-604, looked up)
chain: MFTSRASFLANRRMIFDFSEKNNDIYLDAFGMSDKSSSATNSLPNSPIHSNNNNPSLLNNNNNNSNGTSSNNSLNVGNNNSNPSLGGTNSNALVSVGSNGIMSAAGLVNNNNNPCSANRNVVAMVDDDACFRLDTDATVTYGEKEPDPDNIKMFVGQVPKSMDESQLREMFEEYGAVHSINVLRDKATGISKGCCFVTFYTRRAALKAQDALHNVKTLNGMYHPIQMKPADSENRNERKLFVGMLNKKLNENDVRKLFEVHGAIEECTVLRDQNGQSKGCAFVTFATKHAAISAIKVTLSQNKIMEGCTSPLVVKFADTQKEKEQKKIQQIQANLWNLASNINIPLGQTATSVTTPILPNPPQQPSPVLGADAITPASIQLLQQLQAVGLQHQLLQALTGLGAQQSSSATDTSAVAAAGLLTPMTVQNLAAIAAMTQPSLSNAAAAAARATSPGSAQLTNTAALLWSDPNPMASAYMSTAAGLPQFGSASALSTSPLASVALSAAAAAAAGKQIEGPEGCNLFIYHLPQEFTDTDLASTFLPFGNVISAKVFIDKQTSLSKCFGFVSFDNPDSAQVAIKAMNGFQVGTKRLKVQLKKPKDSKPY
notes: Bruno (Bru; encoded by the aret gene), Drosophila; full-length Bru in pET-15b; Vector pET-15b; The tethered transgene proteins carry RRM2/RRM3 point mutations; source: E. coli, purified (Ni-NTA); not shown: His6, N-terminal, kept

The binders below were run against T1, GST::Bru (full-length Bruno fused to …) (assay: pull-down; GST::Bru, GST::Cup or GST immobilized on Glutathione Sepharose 4B from E. coli extract and washed; ~100 ng N-terminally His6-tagged Bru protein in 80 μl binding buffer (50mM Tris-Cl pH7.5, 150mM NaCl, 10% glycerol, 1mM DTT, 0.1% IGEPAL-CA-630), 2–3 hr at room temperature; Western blot with anti-His antibody). Conditions: both partners purified.

Binding result, binds:
B1
B2
B3
